In this test the target is T1, CD22 (UniProtKB-P20273) on CD22(+) cells (human, UniProt P20273 20-847).
T1 construct: Endogenous CD22 on the NALM6 and Raji cell lines; also called SIGLEC-2; BL-CAM
T1 sequence: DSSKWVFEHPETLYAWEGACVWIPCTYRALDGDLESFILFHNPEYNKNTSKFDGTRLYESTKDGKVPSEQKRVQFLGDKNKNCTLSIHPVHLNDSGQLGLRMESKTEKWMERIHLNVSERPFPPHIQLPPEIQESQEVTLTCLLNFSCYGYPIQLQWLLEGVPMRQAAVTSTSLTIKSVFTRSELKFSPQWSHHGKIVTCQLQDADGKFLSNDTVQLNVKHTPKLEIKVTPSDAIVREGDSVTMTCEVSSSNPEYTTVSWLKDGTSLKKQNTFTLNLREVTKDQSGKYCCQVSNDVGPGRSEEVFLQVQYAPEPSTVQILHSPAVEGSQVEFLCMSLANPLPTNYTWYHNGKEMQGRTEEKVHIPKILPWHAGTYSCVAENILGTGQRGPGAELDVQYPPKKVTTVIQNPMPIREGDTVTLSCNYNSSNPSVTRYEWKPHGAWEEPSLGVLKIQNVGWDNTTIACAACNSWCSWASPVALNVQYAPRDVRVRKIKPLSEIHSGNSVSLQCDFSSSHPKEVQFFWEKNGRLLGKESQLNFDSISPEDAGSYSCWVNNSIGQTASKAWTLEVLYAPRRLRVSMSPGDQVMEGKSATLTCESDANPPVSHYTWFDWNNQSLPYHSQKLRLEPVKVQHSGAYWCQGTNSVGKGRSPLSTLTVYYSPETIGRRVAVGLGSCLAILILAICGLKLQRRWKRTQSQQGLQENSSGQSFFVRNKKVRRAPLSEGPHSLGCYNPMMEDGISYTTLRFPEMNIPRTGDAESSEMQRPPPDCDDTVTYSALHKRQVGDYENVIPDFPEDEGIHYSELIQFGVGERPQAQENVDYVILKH
The experiment in a line: flow cytometry (FACS) on CD22(+) NALM6 cells, detected with an anti-human Fc second antibody. Here is the method: The binding of bispecific CD22-CD3 IgG-scFv antibodies to NALM6 CD22(+) leukemic cells was assayed using FACS. CD22(−) MOLM13 AML cells were used as a negative control for CD22 expression, and anti-CD3 humanized OKT3 (huOKT3) was used as a negative antibody control. […] In contrast, neither the chimeric LL2 IgG+huOKT3 scFv nor the huOKT3 antibody stained the CD22(−) MOLM13 AML cells.
(In general: Flow cytometry measures light scatter and fluorescence of single cells or particles in a stream.)

Results on one molecule are retold here after patent US20220177581A1 (Memorial Sloan Kettering, published 2022).

B1: chimeric anti-CD22-CD3 BsAb (chLL2 x CD3 BsAb) (bispecific antibody)
heavy: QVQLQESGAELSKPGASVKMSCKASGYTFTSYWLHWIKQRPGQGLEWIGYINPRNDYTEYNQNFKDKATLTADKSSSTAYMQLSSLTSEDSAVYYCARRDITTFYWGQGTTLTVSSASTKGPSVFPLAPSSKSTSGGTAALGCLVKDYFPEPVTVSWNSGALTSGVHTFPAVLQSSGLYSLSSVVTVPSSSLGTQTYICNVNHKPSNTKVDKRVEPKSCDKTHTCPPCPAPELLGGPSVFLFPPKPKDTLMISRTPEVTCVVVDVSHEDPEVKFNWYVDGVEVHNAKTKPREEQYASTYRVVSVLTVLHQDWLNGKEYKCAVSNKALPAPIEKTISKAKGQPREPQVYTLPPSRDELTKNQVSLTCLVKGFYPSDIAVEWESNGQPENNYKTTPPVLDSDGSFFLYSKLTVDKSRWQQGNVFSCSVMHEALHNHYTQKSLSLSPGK
light: DIQLTQSPSSLAVSAGENVTMSCKSSQSVLYSANHKNYLAWYQQKPGQSPKLLIYWASTRESGVPDRFTGSGSGTDFTLTISRVQVEDLAIYYCHQYLSSWTFGGGTKLEIKRTVAAPSVFIFPPSDEQLKSGTASVVCLLNNFYPREAKVQWKVDNALQSGNSQESVTEQDSKDSTYSLSSTLTLSKADYEKHKVYACEVTHQGLSSPVTKSFNRGECTSGGGGSGGGGSGGGGSQVQLVQSGGGVVQPGRSLRLSCKASGYTFTRYTMHWVRQAPGKCLEWIGYINPSRGYTNYNQKFKDRFTISRDNSKNTAFLQMDSLRPEDTGVYFCARYYDDHYSLDYWGQGTPVTVSSGGGGSGGGGSGGGGSGGGGSGGGGSGGGGSDIQMTQSPSSLSASVGDRVTITCSASSSVSYMNWYQQTPGKAPKRWIYDTSKLASGVPSRFSGSGSGTDYTFTISSLQPEDIATYYCQQWSSNPFTFGCGTKLQITR
notes: IgG-scFv format: huOKT3 scFv fused to the C-terminus of the LL2 IgG1 light chain; also called chimeric LL2 IgG+huOKT3 scFv
Take B1: the binding result is recorded as “binds”.
